From article PMC4207522, “Interaction of Omega, Sigma, and Theta glutathione transferases with p38b mitogenactivated protein kinase from the fruit fly, Drosophila melanogaster” (Journal of Insect Science, 2014)

Columns and labels:
[1] = biological target: p38b mitogen-activated protein kinase (Drosophila melanogaster) (UniProt O61443)
[2] = biological target: p38b mitogen-activated protein kinase (Drosophila melanogaster) (UniProt O61443); remark: listed apart in the source
[3] = biological target: p38b mitogen-activated protein kinase (Drosophila melanogaster) (UniProt O61443); remark: listed apart in the source

UniProt O61443, sequence (O61443 whole entry): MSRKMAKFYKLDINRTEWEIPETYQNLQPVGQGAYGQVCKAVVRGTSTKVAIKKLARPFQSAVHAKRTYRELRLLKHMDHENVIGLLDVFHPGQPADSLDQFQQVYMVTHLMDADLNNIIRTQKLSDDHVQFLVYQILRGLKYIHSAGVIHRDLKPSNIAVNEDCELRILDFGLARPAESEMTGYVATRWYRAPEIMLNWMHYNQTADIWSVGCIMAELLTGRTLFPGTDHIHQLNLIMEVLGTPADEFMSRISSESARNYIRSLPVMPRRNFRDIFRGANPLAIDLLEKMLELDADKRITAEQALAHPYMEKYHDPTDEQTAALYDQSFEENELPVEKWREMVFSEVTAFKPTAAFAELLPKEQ

| Substance | GST conjugating activity toward CDNB after 5 min with p38b at 1:1 molar ratio, percent increase against no p38b [1] | p38b kinase activity toward Jun with the GST at 1:1 molar ratio (ADP Quest assay), fold against the reaction without GST [2] | p38b kinase activity toward ATF2 with the GST at 1:1 molar ratio (ADP Quest assay), fold against the reaction without GST [2] | GST conjugating activity toward CDNB after 5 min with p38b at 1:1 molar ratio, percent decrease against no p38b [1] | p38b kinase activity toward ATF2 with DmGSTT3b, fold against p38b with DmGSTT3a [3] | p38b kinase activity toward Jun with DmGSTT3b, fold against p38b with DmGSTT3a [3] | GST thiol transferase activity toward HED after 5 min with p38b at 1:1 molar ratio, percent change (a decrease by the discussion) against no p38b [1] |
| --- | --- | --- | --- | --- | --- | --- | --- |
| DmGSTO2a (enzyme) | 26% |  |  |  |  |  |  |
| DmGSTT3b (enzyme) |  | 7.4 fold | 3.4 fold | 84% | 3.1 fold | 6.9 fold |  |

Other lines, results leading:

| GST conjugating activity toward CDNB after 5 min with p38b at 1:1 molar ratio, percent increase against no p38b [1] | p38b kinase activity toward Jun with the GST at 1:1 molar ratio (ADP Quest assay), fold against the reaction without GST [2] | p38b kinase activity toward ATF2 with the GST at 1:1 molar ratio (ADP Quest assay), fold against the reaction without GST [2] | GST conjugating activity toward CDNB after 5 min with p38b at 1:1 molar ratio, percent decrease against no p38b [1] | p38b kinase activity toward ATF2 with DmGSTT3b, fold against p38b with DmGSTT3a [3] | p38b kinase activity toward Jun with DmGSTT3b, fold against p38b with DmGSTT3a [3] | GST thiol transferase activity toward HED after 5 min with p38b at 1:1 molar ratio, percent change (a decrease by the discussion) against no p38b [1] | Substance |
| --- | --- | --- | --- | --- | --- | --- | --- |
| 58% | 2 fold |  |  |  |  |  | DmGSTO1 (enzyme) |
| 14% | 4.3 fold | 3.1 fold |  |  |  |  | DmGSTT2 (enzyme) |
|  | 1.6 fold |  |  |  |  | 14% | DmGSTO3 (enzyme) |
